Results as given in the DeepSol protein solubility set.

Assay: soluble on expression in E. coli; label from the status in PepcDB or PDB records

| Sequence | soluble on expression in E. coli |
| --- | --- |
| MGSDKIHHHHHHMSKIKVALLVDEYFGGAKTKYGGYGFLARHLVAKHLPDDQVDVDVLLKKDCGKVRLWPKCFMVDGIRVYKLAARAFDWVNNLFLRQKNYDVFLSIEMTTHSYRIFSKAPGKNKKLLFWIQDPRPTYEWDEIQTVKLFPEPSYWDAEIYDFVNQYARSGNVRFISQAKCLDQKARDLYRLPANTSINYLPNPIEIDETFDLDSFPKQNSIIFLGRIESVKRGWLFAEIAKAMPQCQFYMLGQAHRQADENNAVMSGYQAIPNLHFVGHVEGEQKNRFLKEAKVLVNTSIHEALPISFLEALSYGTLLVSCQNPDELASKFGVYTGKVLGDGFDKVELFVAGINQLLTNDDHRHQLAKDAIAYIKEVHSLSRFTGDIKHELLTLCASRNEPVKATGRTTTSTVQ | not soluble |
| MRQSGSWMTIWDDRILEIIHEEGNGSPKELEDRDEIRISKSSVSRRLKKLADHDLLQPLANGVYVITEEGEAYLNGEYDAGKERYINRGNSTDEENGADAPDGPGINS | soluble |
| MGSDKIHHHHHHMRYRPVIGLEIHVQLSTKTKAFCSCPADVFELPPNTAICPVCTGQPGALPVPNEEMIRFAVKTALALNCKIHKYSRFDRKNYFYPDLPKGYQISQYFYPIATEGFLEIDGDEGRKKVRIRRLHLEEDAGKLVHEGDSITRASYSLVDMNRCGVPLIEIVTEPDISSPREARVFMEKLRSIVRYLGVSTGDMEKGALRCDANISVVDTETGRQSNRVEVKNMNSFRFVERALEYEFERIVKAMERGEDVERETRGWDMATKITVSMRGKEEESDYRYFPEPDIPPVVLSDEYLEEVKKELPELPDEKAERFMREYGLPEYDAKVLTSSKELAEFFEECVKVVNRPKDLSNWIMTEVLRELNERNIEITESKLTPQHFADLFKLMDEGKISIKIAKEIFPEVFETGKMPSQIVEEKGLTQINDEKLIEELVKKAMEQNPKAVQDYKSGKKKAAGFFVGYVMRETKGKANPELTNRIIQKLLEGE | not soluble |
| VVELPKTDEGLGFNIMGGKEQNSPIYISRVIPGGVADRHGGLKRGDQLLSVNGVSVEGEQHEKAVELLKAAQGSVKLVVR | soluble |
| MGSDKIHHHHHHMSSEQIIASLKELVATPENPGKVLTDPADLDNYGKDWTKIYPPKPLAIVLPKTTEQVQALVKFANENQVALVPSGGRTGLSAGAVAANGEVVVAFDNMNQILDFNASDRTVRCQAGVVTEQLQTFAEENGLYYPVDFASAGSSQLGGNLSTNAGGIKVIRWGMSRDWVAGLKVVTGKGDVLDLNKDLAKNNTGYDLRHLFIGAEGTLGFITEATMKLTRKPDDLTVLVLGLNDLTNTMDVLQAFQKKLDLTAYEFFSHQAMGHVLAHGQVQAPFETEAPYYALLEFEAVSDQVMDDAMALFEQCVEEGWVLDGVISQSETQAQNLWQLRERISESIAPRIPYKNDISVVVSKVPGFLQEIDNVVTEHYPDFEIIWFGHIGDGNLHLNILKPEDMAKEDFFEKCQQVNKWVFEIVERYQGSVSAEHGVGMTKKPYLQYTRSEAEIAYLRGIKQVFDPNNIMNPGKIFD | not soluble |
| MGSDKIHHHHHHMSNGGRLVSQLEAEGSTHLTLPIHKKSLSSLWQIRPLRQLIEEHQPDIVHVRSRVPAWLTHFALRKIPANKRPHLISTVHGFYSVNRYSAIMTQAEKVIAVSDSVVKYITDHYKNCPPQDIVRIYRGIDPAAFPHNYQPSAQWFNQVFNDFPELENKFLLCLPGRITRLKGHESLIELMQQLHSQYPQLHAVIVGGADVKKQAYLSELQNTIQSKGLADKITFVGHRSDIREWLAFSDIVLSLSNQAETFGRTALEALSVGTPVIGWNRGGVAEILSHVYPQGLVEAENEKALLETVKHHIEQPQTVAPVTMFSLKDMCDQTLELYQSVLN | not soluble |
| MERGRSDMEMINNMANCLILLSKAHQNDTKSRVFACKTCNKEFPSFQALGGHRASHRRSAALEGHAPPSPKRVKPVKHECPICGAEFAVGQALGGHMRKHRGGSGGGGGRSLAPATAPVTMKKSGGGNGKRVLCLDLNLTPLENEDLKLELGRFIF | soluble |
| MDKEIKICPRCEQGYLYHAKPKYFSGEVILCDECYAMWLGDMKIFYGQYGKDFYDYHEFMKDKGIEEINMWEGELFDHPYYEDEKFK | not soluble |
| MTTPFTHETLPADPKAAIRQMKQALRAQIGDVQAVFDRLSATIAARVAEINDLKAQGQPVWPIIPFSELAMGNISDATRAEVKRRGCAVIKGHFPREQALAWDQSMLDYLDKNHFDEVYKGPGDNFFGTLSASRPEIYPVYWSQAQMQARQSEEMALAQSFLNRLWQVEHDGKRWFNPDISIIYPDRIRRRPPGTTSKGLGAHTDSGALERWLLPAYQQVFASVFNGNVEQYDPWNAAHRTDVEEYTVDNTTKCSVFRTFQGWTALSDMLPGQGLLHVVPIPEAMAYILLRPLLDDVPEDELCGVAPGRVLPISEQWHPLLMAALTSIPPLEAGDSVWWHCDVIHSVAPVENQQGWGNVMYIPAAPMCEKNLAYARKVKAALETGASPGDFPREDYETTWEGRFTLRDLNIHGKRALGIDV | soluble |
| MAHHHHHHMYVAIYNIGKKKNIGSIVRSCVAFRVSKIFVVSRKKNQVNFFGHMGTCEYITIEYFSSMKELKTHLRDNGILLYACEITSSAVPVTRRPFENKDTAFLFGNEGTGINDETLSYCDKVVYIPQYGNGTCSLNVSVSCAIILHHFAVWADYPEVGISGKKFVLNKCATKLERYLNPSDDLLRQISEKRAQRAATKLASPDWAAPHFADPSPDLFPG | not soluble |
| MGHHHHHHSHLPGNTRKMDKTTVLEKVIGFLQKHNEVSAQTEICDIQQDWKPSFLSNEEFTQLMLEALDGFIIAVTTDGSIIYVSDSITPLLGHLPSDVMDQNLLNFLPEQEHSEVYKILSSHMLVTDSPSP | soluble |
| MINKTKRLMVPRTVKIPRKTYFWGPTPLPGRHKADHSVTLLTIIRDYLRLSDKEREATRILANGLVKVDGKVVKERKFGVGFMDVIEISGESYRVVYNNQGALVLVSESKDRANMKPLQVKNKVIAPGNKIQLGFHDGRVMVTEDRSISVGDVVIASLPDMKITEIIKMQPGNKAFITGGSHVGETGTISKIEIKESSSANLVHFDEGFTTVKDHVFVIGSPRFTFTMPSGEVYPLEHHHHHH | not soluble |
| MNNNDIIRRLRYTFDFNDDKMIQLFALADQQVTRAEISNWMKKDDDPDFKELYDKELAVFLNGFIIDKRGKKDGQTPVAEKSLNNNIIFRKLKIALNLQDDDILDILELADMRFGKHELSALFRNPDQSQFRPCKDQVLRNFIHGLQLKYRKE | not soluble |
| MSHHFRLAKGIPHVVDATPPHSMYNSPISIHYLPKRASSADPFKRKALSKSQRELTDFVNGRNGDPHGLRLPLPIRSSLTDLVKPKLLENRNYQPPRRKTPSKDHHSKAEENSKKAKKLERINKFKDAVLTDLIENDTYSDQMIMNSIRRHMEKLAGVISWDDLEKAADELIKKIGLNTNVQNSRRSSRSRDKNQRFNKPPLPYKVERIGSAQSLESLSSPSSSSAKTSSSSSSSSFSTSSQETNSSESS | not soluble |
| MQLPVMPPVSPMLAKSVTAIPPDASYEPKWDGFRSICFRDGDQVELGSRNERPMTRYFPELVAAIRAELPHRCVIDGEIIIATDHGLDFEALQQRIHPAESRVRMLADRTPASFIAFDLLALGDDDYTGRPFSERRAALVDAVTGSGADADLSIHVTPATTDMATAQRWFSEFEGAGLDGVIAKPPHITYQPDKRVMFKIKHLRTADCVVAGYRVHKSGSDAIGSLLLGLYQEDGQLASVGVIGAFPMAERRRLLTELQPLVTSFDDHPWNWAAHVAGQRTPRKNEFSRWNVGKDLSFVPLRPERVVEVRYDRMEGARFRHTAQFNRWRPDRDPRSCSYAQLERPLTVSLSDIVPGLR | not soluble |
| MAQKVEAGGGAGGASWDDGVHDGVRKVHVGQGQDGVSSINVVYAKDSQDVEGGEHGKKTLLGFETFEVDADDYIVAVQVTYDNVFGQDSDIITSITFNTFKGKTSPPYGLETQKKFVLKDKNGGKLVGFHGRAGEALYALGAYFATTTTPVTPAKKLSAIGGDEGTAWDDGAYDGVKKVYVGQGQDGISAVKFEYNKGAENIVGGEHGKPTLLGFEEFEIDYPSEYITAVEGTYDKIFGSDGLIITMLRFKTNKQTSAPFGLEAGTAFELKEEGHKIVGFHGKASELLHQFGVHVMPLTN | soluble |
| MSLSLDTAREAVQKKPLLYDKGGEEHYNVISAFIKSMRGSDPDGALYWLARMIEAGEDPIFILRRMVILASEDIGNADPRALQVAVTALQGFQLVGMPEGRIIIGQAVTYLATAPKSNASYVGIDAALAEVRKSGALPVPLHIRNAPTRLMKDLGYGTGYRYAHDYAEGYVAQDYLPDQIKGRKYYDPTGHGYEKSIKERMEWLKGKKEGHHHHHH | not soluble |
| MKIVEVKHPLVKHKLGLMREQDISTKRFRELASEVGSLLTYEATADLETEKVTIEGWNGPVEIDQIKGKKITVVPILRAGLGMMDGVLENVPSARISVVGMYRNEETLEPVPYFQKLVSNIDERMALIVDPMLATGGSVIATIDLLKKAGCSSIKVLVLVAAPEGIAALEKAHPDVELYTASIDQGLNEHGYIIPGLGDAGDKIFGTK | soluble |
| MGSDKIHHHHHHMRKMKNNDKSVITVDLNDPVKSLEYLEEAFQIGTFILKNSPVNFKRLAKVLSDLDTFYNLDFKTKIDISGQISGGGATRGYFPLGVESGLVDVFEKKESYSFGWPDNEIPDSDASNLSLVAPNIYPDHGYINPDDINGLIKDFANAAKKLSRLIEIILFNGKTVLPIDESSDFQSLLRSFRYYKKTEFDPPNTGANSLHTDWNLITLVYADADGYQYRDNEGNFQNIIPEMEDCLIVNFGDFLSAWTGGKIVSPWHQVVEAKKKDVRNSLVFFYYPAASSSAVKNPIYNQGEPLSLFVDQSDPLNRLWDFSKIETMNEMYAGKWKQVSRK | not soluble |
| MSLTQYWLGLDCGGSWLKAGLYDREGREAGVQRLPLCALSPQPGWAERDMAELWQCCMAVIRALLTHSGVSGEQIVGIGISAQGKGLFLLDKNDKPLGNAILSSDRRAMEIVRRWQEDGIPEKLYPLTRQTLWTGHPVSLLRWLKEHEPERYAQIGCVMMTHDYLRWCLTGVKGCEESNISESNLYNMSLGEYDPCLTDWLGIAEINHALPPVVGSAEICGEITAQTAALTGLKAGTPVVGGLFDVVSTALCAGIEDEFTLNAVMGTWAVTSGITRGLRDGEAHPYVYGRYVNDGEFIVHEASPTSSGNLEWFTAQWGEISFDEINQAVASLPKAGGDLFFLPFLYGSNAGLEMTSGFYGMQAIHTRAHLLQAIYEGVVFSHMTHLNRMRERFTDVHTLRVTGGPAHSDVWMQMLADVSGLRIELPQVEETGCFGAALAARVGTGVYHNFSEAQRDLRHPVRTLLPDMTAHQLYQKKYQRYQHLIAALQGFHARIKEHTLEGHHHHHH | soluble |
| MGSDKIHHHHHHKENNDFSSMQMKGVEQVSVKVDLDPAVERLSKAVQFRTISNQDRNDFDEKAFTDYHQFLEKAYPNVHKTLKREVLGSPRPFSLLYTWKGKDPSLPPALFYAHQDVVPVPSESRDQWAVDPFAGAVQDGYIWGRGVLDDKNQIHGILEAAEMKIKEGWQPSRTLYFVFGQDEEVGGPEGAKYIADVLEQRGIKRFAFVIDESAPLTPGIFPGIPDNTALIGIAQKGFVSLELAMNGIGGHSSQPPEESNIGILAKAITKLEAAQFPYRIHEAVRHQYRYMGPELSEDKQPMYAAVAFGKDGEITPLEQKFIDEMASQQVTRAMLHTTIAVTMFNAGIKDNVLPPSATAVVNFRPMPGDTPEVIIAHVKKAIGDDRITVRDISASTPATNVADPSSKSYQQLEKTIRQIYGNDLIVSPFFVIGGSDSKHFQARKFAPDVYTITGLQLESVKEFAGFHGVNERIRVDEYGRTIGFFYKLMDNLEEL | not soluble |
